Measured values from PMC5676521.

Substrate: C[S+](CC[C@H](N)C(=O)[O-])C[C@H]1O[C@@H](n2cnc3c(N)ncnc32)[C@H](O)[C@@H]1O
Experiment: purified protein
Conditions: varied: cofactor

B1: PRMT7 (TbPRMT7) (Trypanosoma brucei brucei TREU927) (protein)
chain: MPPKQHRHQKKDKNDNALQNTIGFVPPGATLASVSGYRPPDAFVNRIDRNIPVPARLRHTPVSLIEAVNDFHYAMMNDEERNNFYYEVLKKHVTPETGVLEIGAGSGLLSLMAAKLGAKWVVAVEGSEELAKLARENIRANNMEHQVKVLHMMSTELKSKHLPEPPDVLLSEIFGTMMLGESALDYVVDVRNRLLKPTTKIIPQFGTQYAVPIECDALHRISSVSGWRDLDLKHMMTLQDTVSIVFAKHYGIRMNSVNFRRLSDPIELFRVDFSSSNRNDIPRRKHFDVVAKESGTAHAMLFYWKVTDDEFVMSTDPEDTVNNFPRDMQWGQALQLLDASNGPLPTPVVFTEGKNYNFECNFSGDRVILHMQLCPESGNGEMTECEGKTT
Km: 1.1 ± 0.2 µM
kcat: 22.3 ± 0.6 h^–1
